Results as given in paper PMC5064454, “Wild-type p53 binds to MYC promoter G-quadruplex”.

Experiments:
p53CT (GSTp53CT) = p53CT (GSTp53CT) (Homo sapiens, UniProt P04637 320-393); test: EMSA; 50 mM KCl; EMSA: 5 mM Tris pH 7.6, 0.5 mM EDTA, 0.01% Triton X-100, 50 mM KCl, 0.5 mM DTT, on ice 20 min (30 min for plasmids); oligo EMSA with 50 ng BSA and 2.5-20 ng pBSK/EcoRV competitor; conditions: protein: recombinant; tags: GST; chain copies: 4; label: 5' 32P; parallel G4, 1:2:1 loops, annealed in 50 mM KCl
[1] = target: T1, wtp53 (full-length wild-type p53) (Homo sapiens, UniProt P04637 1-393); test: EMSA; 50 mM KCl; comparable to P1-50; EMSA: 5 mM Tris pH 7.6, 0.5 mM EDTA, 0.01% Triton X-100, 50 mM KCl, 0.5 mM DTT, on ice 20 min (30 min for plasmids); oligo EMSA with 50 ng BSA and 2.5-20 ng pBSK/EcoRV competitor; conditions: protein: recombinant; chain copies: 4; label: 5' 32P; parallel G4, 1:2:1 loops, annealed in 50 mM KCl
[2] = target: T1, wtp53 (full-length wild-type p53); test: EMSA; 50 mM KCl; EMSA: 5 mM Tris pH 7.6, 0.5 mM EDTA, 0.01% Triton X-100, 50 mM KCl, 0.5 mM DTT, on ice 20 min (30 min for plasmids); oligo EMSA with 50 ng BSA and 2.5-20 ng pBSK/EcoRV competitor; conditions: protein: recombinant, chain copies: 4, label: 5' 32P
[3] = target: p53CD (GSTp53CD, central DBD) (Homo sapiens, UniProt P04637 94-312); test: as above; conditions: protein: recombinant; tags: GST; chain copies: 4; label: 5' 32P; blunt
p53CΔ30 = p53CΔ30 (Homo sapiens, UniProt P04637 1-363); test: as above; conditions: protein: recombinant; chain copies: 4; label: 5' 32P; blunt
[4] = target: T1, wtp53 (full-length wild-type p53); test: EMSA; 50 mM KCl; comparable to P1-22, lower than Pu52; EMSA: 5 mM Tris pH 7.6, 0.5 mM EDTA, 0.01% Triton X-100, 50 mM KCl, 0.5 mM DTT, on ice 20 min (30 min for plasmids); oligo EMSA with 50 ng BSA and 2.5-20 ng pBSK/EcoRV competitor; conditions: protein: recombinant; chain copies: 4; label: 5' 32P; parallel G4, 1:2:1 loops, annealed in 50 mM KCl
[5] = target: T1, wtp53 (full-length wild-type p53); test: EMSA; 50 mM KCl; comparable to P1-30, lower than Pu52; EMSA: 5 mM Tris pH 7.6, 0.5 mM EDTA, 0.01% Triton X-100, 50 mM KCl, 0.5 mM DTT, on ice 20 min (30 min for plasmids); oligo EMSA with 50 ng BSA and 2.5-20 ng pBSK/EcoRV competitor; conditions: protein: recombinant; chain copies: 4; label: 5' 32P; parallel G4, annealed in 50 mM KCl

Chain of p53CD (GSTp53CD, central DBD) (P04637 94-312): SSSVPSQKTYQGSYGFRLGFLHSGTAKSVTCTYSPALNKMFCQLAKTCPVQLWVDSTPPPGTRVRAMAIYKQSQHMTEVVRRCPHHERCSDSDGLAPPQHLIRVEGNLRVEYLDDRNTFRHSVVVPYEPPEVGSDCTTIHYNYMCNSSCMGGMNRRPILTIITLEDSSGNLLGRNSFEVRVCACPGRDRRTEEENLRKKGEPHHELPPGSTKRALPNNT
T1 sequence (P04637 whole entry): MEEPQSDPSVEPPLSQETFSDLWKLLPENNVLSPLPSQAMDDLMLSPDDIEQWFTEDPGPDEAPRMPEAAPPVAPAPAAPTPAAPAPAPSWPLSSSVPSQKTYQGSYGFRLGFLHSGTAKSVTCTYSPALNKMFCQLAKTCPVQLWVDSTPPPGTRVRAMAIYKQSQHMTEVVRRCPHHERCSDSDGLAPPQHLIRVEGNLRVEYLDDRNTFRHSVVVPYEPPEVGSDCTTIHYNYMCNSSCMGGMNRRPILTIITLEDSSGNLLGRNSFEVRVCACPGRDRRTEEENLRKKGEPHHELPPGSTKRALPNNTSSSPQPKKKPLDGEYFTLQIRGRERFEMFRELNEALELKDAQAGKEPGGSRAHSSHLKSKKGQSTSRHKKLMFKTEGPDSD
Chain of p53CΔ30 (P04637 1-363, stated change not applied): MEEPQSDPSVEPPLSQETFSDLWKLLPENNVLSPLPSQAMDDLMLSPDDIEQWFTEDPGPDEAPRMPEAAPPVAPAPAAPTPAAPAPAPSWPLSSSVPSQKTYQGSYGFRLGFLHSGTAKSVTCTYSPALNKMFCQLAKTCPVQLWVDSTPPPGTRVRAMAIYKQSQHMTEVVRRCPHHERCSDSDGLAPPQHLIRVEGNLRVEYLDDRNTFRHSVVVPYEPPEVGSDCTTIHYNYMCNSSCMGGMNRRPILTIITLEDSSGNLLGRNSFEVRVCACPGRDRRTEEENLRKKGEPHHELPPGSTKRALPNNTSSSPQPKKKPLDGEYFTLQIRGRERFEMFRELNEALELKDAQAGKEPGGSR
Chain of p53CT (GSTp53CT) (P04637 320-393): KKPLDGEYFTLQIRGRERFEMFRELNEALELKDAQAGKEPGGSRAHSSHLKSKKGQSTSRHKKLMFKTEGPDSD

Binder	binding result ([2]; blunt)	binding result [3]	further results
Pu52 (structured_DNA) DNA: TTGGGGCGCTTATGGGGAGGGTGGGGAGGGTGGGGAAGGTGGGGAGGAGACT			binding result (p53CT (GSTp53CT)): binds; binding result [1]: binds
P1-50 (dsDNA) DNA 1: GACGGTATCGATAAGAGACATGCCTAGACATGCCTCTTGATATCGAATTC DNA 2: GAATTCGATATCAAGAGGCATGTCTAGGCATGTCTCTTATCGATACCGTC	binds	binds	
P1-30 (dsDNA) DNA 1: GTAAGAGACATGCCTAGACATGCCTCATCG DNA 2: CGATGAGGCATGTCTAGGCATGTCTCTTAC	binds	binds	
P1-22 (dsDNA) DNA 1: GAGACATGCCTAGACATGCCTC DNA 2: GAGGCATGTCTAGGCATGTCTC	binds	binds	
AAAAAAAAAAAAAAAAAAAAAAAAAAAAAAAAAAAAAAAAAAAAAAAAAA (ssDNA) [A50]			binding result [2]: no binding
P1-40 (dsDNA) DNA 1: GATCGATAAGAGACATGCCTAGACATGCCTCTTGATATCG DNA 2: CGATATCAAGAGGCATGTCTAGGCATGTCTCTTATCGATC	binds	binds	binding result (p53CΔ30): binds
TGAGGGTGGGGAGGGTGGGGAA (structured_DNA) [Pu22]			binding result [4]: binds
AAAAAAAAAAAAAAAAAAAAAAAAA (ssDNA) [A25]			binding result [2]: no binding
TGGGGAGGGTGGGGAGGGTGGGGAAGGTGGGGA (structured_DNA) [Pu33]			binding result [5]: binds
